Reference: paper PMC12724015

Molecular target: peptide derived from subunit 5 of the pertussis toxin (PTX) (…) (Bordetella pertussis)

Substance: Bordetella pertussis DsbA (BperDsbA), mature, oxidized (from UniProt Q7W0K2 28-209) (enzyme)
- fraction of reduced BperDsbA (AMS alkylation, SDS-PAGE, densitometry) after 5, 10 and 30 s of 50 uM oxidized BperDsbA with 50 uM PTX peptide: 90%
